Data reported in patent US10508147B2, “Anti-nodal antibodies and methods of using same” (ANN AND ROBERT H. LURIE CHILDREN'S HOSPITAL OF CHICAGO, priority 2014, dated 2019).
Entries after “also recorded” stand apart in the source; their conditions may differ.

What was measured:
Format in all cases: cell-based, human
[1] = tested on: C8161 cells; assay: Vasculogenic mimicry / vasculogenic network formation assay in 3D culture; details: 24 hours, vs IgG control
Description: (§1) Untreated cells, or cells treated with either IgG Control or 3D1 anti-Nodal antibody for 72 hours were cultured in soft agar for three weeks (soft agar clonogenic assay). […] C8161 cells were treated with either 4 μg/ml of either Santa Cruz (SC), or 3D1 function blocking anti-Nodal antibodies, or IgG Control and cultured in three dimensional cultures for 24 hours to measure their ability to engage in vasculogenic mimicry (VM).
Three-dimensional matrices were prepared by spreading 75 μl of ice-cold Matrigel (average 12-15 mg/ml; Corning, Bedford, Mass.) into 12-well culture dishes and polymerized for one hour at 37° C. C8161 human melanoma cells (1×10^5 cells/well) were then plated onto the prepared Matrigel matrices in the presence of either 4 μg/ml mouse IgG control or 3D1 mAb (2.8 μg/ml). No additional antibody was added. Tubular network formation was then observed after 24 hr and images captured digitally using a Zeiss model 25 inverted microscope (Carl Zeiss, Inc, Thornwood, N.Y.) and Hitachi HV-C20 CCD camera (Hitachi Denshi Ltd., Woodbury, N.Y.). Mean values were calculated from images of at least four different fields of both the IgG control and 3D1 mAb treated cultures, and then analyzed using the AngioSys software package (TCS CellWorks, Ltd., Buckingham, UK) with the mean number (±SEM) of junctions and tubules calculated from the analyzed fields.

[2] = tested on: C8161 melanoma cells; assay: Western blot analysis of C8161 melanoma cells treated with anti-Nodal antibody; details: for phosphorylation of Smad2 and MAPK (ERK1/2): 1 hr to 72 hr
Description: Experiments were conducted in order to assess and characterize the ability of the 3D1 antibody to inhibit Nodal activity. 3D1 reduced Nodal expression, clonogenicity, and vasculogenic mimicry in metastatic melanoma cells (See FIG. 24). C8161 melanoma cells treated with an IgG-Control (negative control) or 4 μg/ml of either Santa Cruz (SC) (used as positive control) or 3D1 function blocking anti-Nodal antibodies for 72 hours.
Additional studies were performed in order to determine if 3D1 antibody could alter phosphorylation of Smad2 or MAPK. […] Western blot analysis of C8161 melanoma cells treated with 3D1 (4 μg/ml) vs. untreated control for 1 hr, 2 hr, 4 hr, 6 hr or 72 hr (See FIG. 25).
(§2) To determine the level of Nodal expression in brain, kidney, liver, pancreas, heart and skeletal muscle ready to use adult tissue extracts for Western blotting (WB) were purchased from Santa Cruz Biotechnology. For WB experiments of cell lines, whole cell lysates were prepared and quantified. SDS-PAGE gel electrophoresis and WB were performed using standard techniques. PVDF membranes were blocked in 5% non-fat milk or 5% BSA and antibodies diluted in either 5% non-fat milk or 5% bovine serum albumin overnight at 4° C., depending on the manufacturer's recommendations. Signal was detected using West Pico chemiluminescence reagent (Thermo Fisher) and exposure to x-ray film.

[3] = tested on: C8161 melanoma cells; assay: Soft agar clonogenic / anchorage independent growth assay; details: three weeks in soft agar, vs untreated and IgG control
Description: as §1
C8161 melanoma cells (5,000 cells/well) were suspended in 0.35% agarose, RPMI 1640; 10% serum with of either 4 μg/ml mouse IgG control (Jackson ImmunoResearch, West Groove, Pa.) or 3D1 mAb (2.8 μg/ml) and were then overlayed onto a solidified layer of 0.5% agar; RPMI 1640; 10% serum in 6-well dishes. Cell clusters were allowed to form and were scored (50 cells or larger clusters) after 3 weeks in culture. Triplicate wells were averaged from separate experiments and presented as a percentage (mean±SEM) of IgG control.

[4] = tested on: MDA-MB-231 breast cancer cells; assay: Western blot analysis of MDA-MB-231 breast cancer cells treated with 3D1; details: 72 hrs
Description: as §2

B1: 3D1: mouse monoclonal anti-Nodal antibody raised against hNodal(44-67); light chain SEQ ID NO:1, heavy chains SEQ ID NO:2 and 3 (protein)
light: DIKMTQSPASLSASVGETVTITCRASGNIHNYLAWYQQKQGKSPQLLVYNAKTLADGVPSRFSGSGSGTQYSLKINSLQPEDFGSYYCQHFWSTPHVRCWDQAGTETEAW
heavy 1: VKLVESGGGLVKPGGSLKLSCAASGFTFSSYAMSWVRQTPEKRLEWVASISSGGCTYYPDSVKGRFTISRDNARNILYLQMSSLRSEDTAMYYCARGSMITADGNSLLLCYGLLGSRNLXHR
heavy 2: VKLVESGGGLVQPGGSMKLSCVASGFTFRNYWMSWVRQSPEKGLEWVAEIRLKSDNYAARYAESVKGKFTISRDDSKSRLYLQMNSLRAEDTGIYYCTGIRRFAYWGQGTL
modifications: not fully specified; (120)..(120) Xaa can be any naturally occurring amino acid
formation of vasculogenic mimicry networks (junctions and tubules) [1]: did not complete the formation of networks
formation of vasculogenic mimicry networks (junctions and tubules) ([1]; listed as 3D1 mAb): unable to form complete networks characteristic of VM; also recorded: significant reduction in the ability to form junctions and tubules
inhibition of Nodal protein expression ([2]; 4 μg/ml, 72 hours, Western blot vs IgG control): 50%
phosphorylation of Smad2 and MAPK (ERK1/2) ([2]; 4 μg/ml): reduced phosphorylation of Smad2 and MAPK
phosphorylation of Smad2 and MAPK (ERK1/2) ([2]; 4 μg/ml, listed as 3D1 mAb): reduction in phosphorylation; also recorded: reduced
p27 level ([2]; 72 hr): increases
phospho-Histone H3 (P-H3) level ([2]; 72 hr): increases
Nodal expression ([2]; 72 hr, 4 μg/ml, vs IgG control, listed as 3D1 mAb): reduction in Nodal expression
Cyclin B1 level ([2]; 72 hr, listed as 3D1 mAb): reduced; also recorded: reduction
p27 level ([2]; 72 hr, listed as 3D1 mAb): increase
phospho-Histone H3 (P-H3) level ([2]; 72 hr, listed as 3D1 mAb): reduction
clonogenicity / anchorage independent growth in soft agar [3]: a decrease in clonogenicity
clonogenicity / anchorage independent growth in soft agar ([3]; listed as 3D1 mAb): reduced ability to form non-adherent spheroidal clusters; also recorded: significant reduction in anchorage independent growth
Nodal expression and P-H3 by WB [4]: noteworthy reduction
reduction in Nodal ([4]; 4 μg/ml, vs IgG control): 45%
reduction in the level of the proliferation/mitosis marker P-H3 ([4]; 4 μg/ml, vs IgG control): 49%
